{
  "source": "paper PMC11079029",
  "about": "“Intramolecular autoinhibition regulates the selectivity of PRPF40A tandem WW domains for proline-rich motifs” (Nature Communications, 2024)",
  "details_in_all_cases": "both partners purified",
  "key": {"[1]": {"molecular_target": "T1, PRPF40A WW12 (tandem WW domains, residues 141-236) (human, UniProt O75400 141-236)", "T1 construct": "A few vector residues probably remain at the N-terminus after TEV cleavage (pETM11, NcoI site); 15N-labelled in the NMR experiments; also called PRPF40A WW tandem; WW12 wt; source: E. coli BL21(DE3), purified (Ni-NTA, TEV digestion, reverse Ni-NTA, SEC); not shown: His6, N-terminal, cleaved", "test": "ITC; PRPF40A construct (WW12, N-ext-WW12 or its mutant) in the cell, GB1-SF1 or GB1-SF3A1 construct in the syringe (as shown in Supplementary Figures 16 and 21); 25 °C, 20 mM sodium phosphate pH 6.5, 100 mM NaCl; one-site binding model; at least duplicates; affinities apparent"}, "[2]": {"molecular_target": "T2, PRPF40A WW12 (tandem WW domains, residues 141-236) (human, UniProt O75400 141-236)", "T2 construct": "pETM11 vector (NcoI/KpnI); also called PRPF40A WW tandem; isolated WW domains; source: E. coli BL21(DE3), purified (Ni-NTA, TEV cleavage, reverse Ni-NTA, SEC); not shown: His6, N-terminal, cleaved", "test": "ITC; MicroCal PEAQ-ITC, 25 °C, 20 mM sodium phosphate pH 6.5, 100 mM NaCl; GB1-tagged SF1/SF3A1 constructs in the syringe, WW12 in the cell (N sites <1: more than one WW tandem on one construct); one-site model; apparent"}, "[3]": {"molecular_target": "T1, PRPF40A WW12 (tandem WW domains, …)", "test": "ITC; GB1-peptide or GB1-SF1 construct in the cell, PRPF40A WW12 in the syringe (as shown in Supplementary Figures 7 and 16A); 25 °C, 20 mM sodium phosphate pH 6.5, 100 mM NaCl; one-site binding model; at least duplicates; affinities apparent"}, "[4]": {"molecular_target": "T3, PRPF40A WW12 (tandem WW domains, residues 141-236) (human, UniProt O75400 141-236)", "T3 construct": "pETM11 vector, NcoI/KpnI; 15N or 13C,15N labelled for NMR; also called PRPF40A WW tandem; PRPF40A tandem WW domains; source: E. coli BL21(DE3), purified (Ni-NTA, TEV, reverse Ni-NTA, SEC); not shown: His6, N-terminal, cleaved", "test": "ITC; GB1-tagged SF1/SF3A1 constructs in the syringe and the WW tandem in the cell; 25 °C, 20 mM sodium phosphate pH 6.5, 100 mM NaCl; one-site model; apparent affinities"}},
  "note": "“And” between values parts separate entries of the source, which are not always exact repeats. Equal entries are not always repeated.",
  "data": [
    {"binder": "EGQKVPPPPETPMPPPLPPTPDQVIVRKDYDPKASKPLPPAPAPDEYLVS (domain or fragment, UniProt Q15459 364-413, looked up, SF3A1 (U2 snRNP component), proline-rich region, residues 364-413; His6-GB1-TEV site cassette of the pET24 vector, not cleaved; source: E. coli BL21(DE3), purified (Ni-NTA, SEC); not shown: GB1, N-terminal, kept)", "values": [
      {"measurement": "Kd", "setting": "[1]", "value": "8.86 ± 1.38", "unit": "µM"},
      {"measurement": "stoichiometry N", "setting": "[1]", "value": "0.56 ± 0.14", "unit": "sites"}
    ]},
    {"binder": "EGQKVPPPPETPMPPPLPPTPDQVIVRKDYDPKASKPLPPAPAPDEYLVS (domain or fragment, UniProt Q15459 364-413, looked up, SF3A1 residues 364-413, proline-rich region with a PPLP motif; pET24 vector with 6xHis, GB1 and TEV site as N-terminal cassette, not cleaved; also called SF3A1 region (364-413); source: E. coli BL21(DE3), purified (Ni-NTA, SEC); not shown: GB1, N-terminal, kept)", "values": [
      {"measurement": "Kd", "setting": "[2]", "value": "8.1 µM and 9.6 µM and 8.86 µM"},
      {"measurement": "stoichiometry N", "setting": "[2]", "value": "0.7 and 0.42 and 0.56"}
    ]},
    {"binder": "GB1-SF3A1 C-ter Pro (residues 552-683) (domain or fragment, UniProt Q15459 552-683, looked up, His6-GB1-TEV site cassette of the pET24 vector, not cleaved; source: E. coli BL21(DE3), purified (Ni-NTA, SEC); not shown: GB1, N-terminal, kept) EIPQQPPPPSSATNIPSSAPPITSVPRPPTMPPPVRTTVVSAVPVMPRPPMASVVRLPPGSVIAPMPPIIHAPRINVVPMPPSAPPIMAPRPPPMIVPTAFVPAPPVAPVPAPAPMPPVHPPPPMEDEPTSK", "values": [
      {"measurement": "stoichiometry N", "setting": "[1]", "value": "0.27 ± 0.07", "unit": "sites"}
    ]},
    {"binder": "GB1-SF3A1 C-ter Pro (residues 552-683) (domain or fragment, UniProt Q15459 552-683, looked up, pET24 vector with 6xHis, GB1 and TEV site as N-terminal cassette, not cleaved; source: E. coli BL21(DE3), purified (Ni-NTA, SEC); not shown: GB1, N-terminal, kept) EIPQQPPPPSSATNIPSSAPPITSVPRPPTMPPPVRTTVVSAVPVMPRPPMASVVRLPPGSVIAPMPPIIHAPRINVVPMPPSAPPIMAPRPPPMIVPTAFVPAPPVAPVPAPAPMPPVHPPPPMEDEPTSK", "values": [
      {"measurement": "stoichiometry N", "setting": "[2]", "value": "0.25 and 0.28 and 0.27"}
    ]},
    {"binder": "GB1-SF1 Pro BCD (residues 468-639) (domain or fragment, UniProt Q15637 468-639, looked up, splicing factor 1 (SF1), residues 468-639; His6-GB1-TEV site cassette of the pET24 vector, not cleaved; source: E. coli BL21(DE3), purified (Ni-NTA, SEC); not shown: GB1, N-terminal, kept) GMMPPPPMGMMPPPPPPPSGQPPPPPSGPLPPWQQQQQQPPPPPPPSSSMASSTPLPWQQNTTTTTTSAGTGSIPPWQQQQAAAAASPGAPQMQGNPTMVPLPPGVQPPLPPGAPPPPPPPPPGSAGMMYAPPPPPPPPMDPSNFVTMMGMGVAGMPPFGMPPAPPPPPPQN", "values": [
      {"measurement": "stoichiometry N", "setting": "[1]", "value": "0.28 ± 0.02", "unit": "sites"}
    ]},
    {"binder": "GB1-SF1 Pro BCD (residues 468-639) (domain or fragment, UniProt Q15637 468-639, looked up, SF1 (splicing factor 1) residues 468-639; pET24 vector with 6xHis, GB1 and TEV site as N-terminal cassette, not cleaved; source: E. coli BL21(DE3), purified (Ni-NTA, SEC); not shown: GB1, N-terminal, kept) GMMPPPPMGMMPPPPPPPSGQPPPPPSGPLPPWQQQQQQPPPPPPPSSSMASSTPLPWQQNTTTTTTSAGTGSIPPWQQQQAAAAASPGAPQMQGNPTMVPLPPGVQPPLPPGAPPPPPPPPPGSAGMMYAPPPPPPPPMDPSNFVTMMGMGVAGMPPFGMPPAPPPPPPQN", "values": [
      {"measurement": "stoichiometry N", "setting": "[2]", "value": "0.3 and 0.26 and 0.28"}
    ]},
    {"binder": "PPPPPPPPPPPPPPPP", "note": "[GB1-polyproline peptide P16]", "values": [
      {"measurement": "Kd", "setting": "[3]", "value": "3.35 ± 0.27", "unit": "µM"}
    ]},
    {"binder": "PPPPPPPPPPPPPPPPPPPPPPPPPPPPP", "note": "[GB1-polyproline peptide P29]", "values": [
      {"measurement": "Kd", "setting": "[3]", "value": "9.15 ± 1.85", "unit": "µM"}
    ]},
    {"binder": "PPPPPPPPPPPPPPPPPPPPPPPPP", "note": "[GB1-polyproline peptide P25]", "values": [
      {"measurement": "Kd", "setting": "[3]", "value": "10.8 ± 1.8", "unit": "µM"}
    ]},
    {"binder": "GB1-SF1 Pro ABCD (residues 410-639) (domain or fragment, UniProt Q15637 410-639, looked up, splicing factor 1 (SF1), residues 410-639, the complete proline-rich C-terminal region; His6-GB1-TEV site cassette of the pET24 vector, not cleaved; source: E. coli BL21(DE3), purified (Ni-NTA, SEC); not shown: GB1, N-terminal, kept) GHPMQHNPNGPPPPWMQPPPPPMNQGPHPPGHHGPPPMDQYLGSTPVGSGVYRLHQGKGMMPPPPMGMMPPPPPPPSGQPPPPPSGPLPPWQQQQQQPPPPPPPSSSMASSTPLPWQQNTTTTTTSAGTGSIPPWQQQQAAAAASPGAPQMQGNPTMVPLPPGVQPPLPPGAPPPPPPPPPGSAGMMYAPPPPPPPPMDPSNFVTMMGMGVAGMPPFGMPPAPPPPPPQN", "values": [
      {"measurement": "stoichiometry N", "setting": "[1]", "value": "0.28 ± 0.05", "unit": "sites"}
    ]},
    {"binder": "GB1-SF1 Pro ABCD (residues 410-639) (domain or fragment, UniProt Q15637 410-639, looked up, SF1 (splicing factor 1) residues 410-639, the complete proline-rich C-terminal region; pET24 vector with 6xHis, GB1 and TEV site as N-terminal cassette, not cleaved; also called complete C-terminal region of SF1; source: E. coli BL21(DE3), purified (Ni-NTA, SEC); not shown: GB1, N-terminal, kept) GHPMQHNPNGPPPPWMQPPPPPMNQGPHPPGHHGPPPMDQYLGSTPVGSGVYRLHQGKGMMPPPPMGMMPPPPPPPSGQPPPPPSGPLPPWQQQQQQPPPPPPPSSSMASSTPLPWQQNTTTTTTSAGTGSIPPWQQQQAAAAASPGAPQMQGNPTMVPLPPGVQPPLPPGAPPPPPPPPPGSAGMMYAPPPPPPPPMDPSNFVTMMGMGVAGMPPFGMPPAPPPPPPQN", "values": [
      {"measurement": "stoichiometry N", "setting": "[2]", "value": "0.33 and 0.23 and 0.28"}
    ]},
    {"binder": "GB1-SF1 Pro CD (residues 539-639) (domain or fragment, UniProt Q15637 539-639, looked up, splicing factor 1 (SF1), residues 539-639; His6-GB1-TEV site cassette of the pET24 vector, not cleaved; source: E. coli BL21(DE3), purified (Ni-NTA, SEC); not shown: GB1, N-terminal, kept) GSIPPWQQQQAAAAASPGAPQMQGNPTMVPLPPGVQPPLPPGAPPPPPPPPPGSAGMMYAPPPPPPPPMDPSNFVTMMGMGVAGMPPFGMPPAPPPPPPQN", "values": [
      {"measurement": "stoichiometry N", "setting": "[1]", "value": "0.39 ± 0.02", "unit": "sites"}
    ]},
    {"binder": "GB1-SF1 Pro CD (residues 539-639) (domain or fragment, UniProt Q15637 539-639, looked up, SF1 (splicing factor 1) residues 539-639; pET24 vector with 6xHis, GB1 and TEV site as N-terminal cassette, not cleaved; source: E. coli BL21(DE3), purified (Ni-NTA, SEC); not shown: GB1, N-terminal, kept) GSIPPWQQQQAAAAASPGAPQMQGNPTMVPLPPGVQPPLPPGAPPPPPPPPPGSAGMMYAPPPPPPPPMDPSNFVTMMGMGVAGMPPFGMPPAPPPPPPQN", "values": [
      {"measurement": "stoichiometry N", "setting": "[2]", "value": "0.42 and 0.38 and 0.36 and 0.39"}
    ]},
    {"binder": "PPPPPPPPPPPPP", "note": "[GB1-polyproline peptide P13]", "values": [
      {"measurement": "Kd", "setting": "[3]", "value": "8.54 ± 1.46", "unit": "µM"}
    ]},
    {"binder": "GMMYAPPPPPPPPMDPSNFVTMMGMGVAGMPPFGMPPAPPPPPPQN (domain or fragment, UniProt Q15637 594-639, looked up, splicing factor 1 (SF1), residues 594-639 of the proline-rich C-terminal region; His6-GB1-TEV site cassette of the pET24 vector, not cleaved; source: E. coli BL21(DE3), purified (Ni-NTA, SEC); not shown: GB1, N-terminal, kept)", "values": [
      {"measurement": "Kd", "setting": "[3]", "value": "10.1 ± 4.2", "unit": "µM"}
    ]},
    {"binder": "GMMYAPPPPPPPPMDPSNFVTMMGMGVAGMPPFGMPPAPPPPPPQN (domain or fragment, UniProt Q15637 594-639, looked up, SF1 (splicing factor 1) residues 594-639, the very C-terminal region; pET24 vector with 6xHis, GB1 and TEV site as N-terminal cassette, not cleaved; source: E. coli BL21(DE3), purified (Ni-NTA, SEC); not shown: GB1, N-terminal, kept)", "values": [
      {"measurement": "Kd", "setting": "[2]", "value": "10.3 µM and 9.94 µM and 10.1 µM"},
      {"measurement": "stoichiometry N", "setting": "[2]", "value": "0.84 and 0.9 and 0.87"}
    ]},
    {"binder": "GMMYAPPPPPPPPMDPSNFVTMMGMGVAGMPPFGMPPAPPPPPPQN (domain or fragment, UniProt Q15637 594-639, looked up, SF1 residues 594-639; also called the very C-terminal region; source: E. coli BL21(DE3), purified (Ni-NTA, SEC), GB1 tag kept; not shown: GB1, N-terminal, kept)", "note": "[GB1-tagged SF1 Pro D (594-639)]", "values": [
      {"measurement": "Kd", "setting": "[4]", "value": "~10", "unit": "µM"}
    ]}
  ]
}
